{"source": "the DeepSol protein solubility set", "data": [{"test": "soluble on expression in E. coli; label from the status in PepcDB or PDB records", "values": [{"sequence": "MACERLGGQSGAADVDAAAPAMAAVNLTLGFAGKTVLDQVSMGFPARAVTSLMGPTGSGKTTFLRTLNRMNDKVSGYRYSGDVLLGGRSIFNYRDVLEFRRRVGMLFQRPNPFPMSIMDNVLAGVRAHKLVPRKEFRGVAQARLTEVGLWDAVKDRLSDSPFRLSGGQQQLLCLARTLAVNPEVLLLDEPTSALDPTTTEKIEEFIRSLADRLTVIIVTHNLAQAARISDRAALFFDGRLVEEGPTEQLFSSPKHAETARYVAGLSGDVKDAKRGN", "soluble on expression in E. coli": "not soluble"}, {"sequence": "MACFSSLSTGVLDMYDLIIVGGGPSGASAGRVAGKAGISTLLIEKENFPRYKPCGGALSPYALSCLDFKLPEYLIEKDISRIRVHFRELCTEMQKDYSIALLVSRKAFDNFLLDKARETGIDIHSGEKVLDCEEGEECVEVRTSQNTYLAKFVLIAEGSEGVLKYSVRKRKDRRTEYDLALVSEIPERDKVIRKRFPNAIDMHFGIASGGYGWIFPHSEHYSVGIVGTAEHLKHPKAVMQDFLQANGFSGDFQVHSHIIPVGGIKRKTISSRILLSGDAAGFVDAFIGEGISYAIRSGQLAAENVAEIVLYNRKLSDLKEYETSCRKEFGNFLSSSLKLEKAMHRFPETSFRLALSRKEIIDKYLEEVVINRSHKDYVRWLLLNFSLSEPASKIKSIKDKNQLEHHHHHH", "soluble on expression in E. coli": "not soluble"}, {"sequence": "MADEVTIGFRFYPTEEELVSFYLRNQLEGRSDDSMHRVIPVLDVFEVEPSHLPNVAGVRCRGDAEQWFFFVPRQEREARGGRPSRTTGSGYWKATGSPGPVFSKDNKMIGAKKTMVFYTGKAPTGRKTKWKMNEYHAVDETVNASTIPKLRREFSLCRVYITTGSSRAFDRRPEGVLQTERMLTSDVAVAETSFRVESSLETSISGGEHIDVSMNTEFVDGLSEPMWDWEQLTWP", "soluble on expression in E. coli": "soluble"}, {"sequence": "MADGPDKKRRKLTSALKDAIGAHSQKPEENIEKPIALALISDNKAAQDLLNKIQASRRPQAILEATLKICKEKKSEAHVDEAFLSIFRKHFSILGVDSALACWKLIEEHLNSSESINEIRIANEFISTSNLLGHGFGKLLQNMKQGIPVVIQNTWRQERKADALALAYPFLSLLLADQVYGDHQNLESLAEFWKNQVLPEKSMKKDFGMRMVSALAGGEPGQLPETKIDENQLEMLSKIYENHLEFYTGILSESTCSQLLAKVIEDNLAKNELKQLARRCQTAEVCMSPCIYYAMISVLRSTFDLNDSELIFIENLKTLKLKEITKHLPSIINSCSNTRQITASKKLKNLENLQDFLHNVTEKPENDNFSAAFALLSINISLIFDNWNFCEKILKTLPKDVLEKLIKAGKGSENENILKVFKKVAQEAAPVKFVNRTAADVAEKLREPEFAVAEALSLLQGVHTAETKKEVFDSVVKFVEEIPGAESIDEMKLFKLIIEMYGGSQLESLAVQVVFSRIAADGWTEMDRAPGTEKSDESWFTVLVETIDLLDIAMKSAKNSVLKSFTALFCQLFSQVLKNSQKFVRNSLNAVASRTLSPEMETEFVLRRHKLSQDLARLVDAMKRNESYFAMLTASIIGDAVFYGSDSLLAMSKLHSLADKNASALLATNLPVVERTRYKKFLSTITRASKRIY", "soluble on expression in E. coli": "not soluble"}, {"sequence": "MADGQVHDELMMDQQQQQGVVPQQGDIHLSPIDKDLGDAALENNVRQYHLDGVVVSEGMKRMIIDLQRHWLSEYHASREKCLVELTEKLHQEFMMDQQKIRSELLQQFKDELEQTRADLENKHRENLKMESAKLNEKHKRELVASRKKQWCWSCDNEAIYHCCWNTAYCSVECQQGHWQTHRKFCRRKKGNNAPGAPSVPAPQQVGAPMPPQQQ", "soluble on expression in E. coli": "not soluble"}, {"sequence": "MADHNDRGRQGEEIALKHLRQQGYQIEALNWQSGRRELDIVASTSRELVVVEVKTRTEGFLLAPEEAVDARKRRLISESAHHYVRMYAIDLPVRFDVISVVLSADGSCKRIEHRENAFPLLLKRSQRSTPRRRRL", "soluble on expression in E. coli": "not soluble"}, {"sequence": "MADKKAPAAGWPVANGEYVVGNPESCVAVITLGSHGLDQAAIDAGAAISGPCHTENLGIEKVVANYISNPNIRFMVIAGSEVQGHITGQCIKALYENGIGDDGGIIGAKGAIPFMENVGKEPVGRLQTQVVECIDLIDVEDKGKIADAIKNCISKDPGAFEEDPMVIELEGGAAAAGDESTSIKPTSPEMALLEARMRIVSEKMNEAAMIAKFNSGYYNGK", "soluble on expression in E. coli": "not soluble"}, {"sequence": "MADKKEKLFSDFSPVSTEQWMEKVTADLKGADFEKKLVWKTNEGFKVKPFYRMEDLEGLKTTDALPGEFPYLRGTKKSNNEWLVRQEIKVECPKEANAKALDILNKGVDSLSFHVKAKELNAEYIETLLNGIQAECVELNFSTCQGHVVELAGLLVAYFQKKDYDVKKLRGSVNYDFFNKMLTRGKEKGDMVQTAKALIEAIQPLPFYRVLNVNAISLNNAGAYISQELGYALAWGNEYMNQLTDAGIPAATVAKKIKFNFGISSNYFLEIAKFRAARMLWANIVASYHPECLRDCDNKGANGECRCAAKMAVHAETSTFNLTLFDAHVNLLRTQTEAMSAALAGVDSMTVVPFDKTYSTPDEFSERLARNQQLLLKEESHFDKVIDPAAGSYYIENLTVSIAKQAWELFLAVEEAGGFYAALKAGTVQAAVNESNKARHKAVAQRREVLLGTNQFPNFNEKAGEKQPIEAKCCCGGDAHTCEKDVDTLVFDRAASEFEALRLETEASGKRPKAFMLTIGNLAMRQARAQYSCNFLACAGYEVIDNLGFETVEAGVEAAMAAKADIVVLCSSDDEYAEYAVPAFKALDGRAMFIVAGAPACMDELKAAGIENFIHVRVNVLDTLKEFNAKLLK", "soluble on expression in E. coli": "not soluble"}, {"sequence": "MADLSFIEDTVAFPEKEEDEEEEEEGVEWGYEEGVEWGLVFPDANGEYQSPINLNSREARYDPSLLDVRLSPNYVVCRDCEVTNDGHTIQVILKSKSVLSGGPLPQGHEFELYEVRFHWGRENQRGSEHTVNFKAFPMELHLIHWNSTLFGSIDEAVGKPHGIAIIALFVQIGKEHVGLKAVTEILQDIQYKGKSKTIPCFNPNTLLPDPLLRDYWVYEGSLTIPPCSEGVTWILFRYPLTISQLQIEEFRRLRTHVKGAELVEGCDGILGDNFRPTQPLSDRVIRAAFQLEHHHHHH", "soluble on expression in E. coli": "soluble"}, {"sequence": "MAEKKKEEKESKETEVFILKLENTTVTFTNPKLGDEVTIASLNLTNPTKDRYAFKIKCTSNQLFKIKSPVGYINPEESLTIPVYHYPATVIPENNKHYFVVYYIKAANTVKEKIPVRDLWKAAASSEGTRRVFIDFKKPELPPTEAEDGKMGDDKKKGKKDDKKEEKDGKKDEKKDGSDEEGKKDEGKGEKKEEKKDDKKDDKKDDKKEEKKEDGAKK", "soluble on expression in E. coli": "soluble"}, {"sequence": "MAEKSYTRFVINGKEQELKFCLQALRLLDENGGPMQFVSQTMQGGITNFTDVVYYALIHTNEGITYEAVQKEIENMFNAEKLDLDEILKYNKAVVLNSFFFQKTVKKLLGTMTAEQQKSFENLYA", "soluble on expression in E. coli": "not soluble"}, {"sequence": "MAEKVAVIVGPTAVGKTKLGIALAKKLGGEVISGDSMQIYKGMDIGTAKVKPDEMEGIPHHLLDIKEPCEPFSVVEFQRLCRALITEISARGRLPIIVGGTGLYIQAALYDYQFSAAPSDEAYRRALKQLAAEQGAEALHRRLEAVDPISAARIHPHNIRRVIRALEVYHCTGKPFSEWQQTEKRLLYEAAIVGLTAEREALYRRINERVDEMIAAGLIEEARALYDRGLRDCQAVQAIGYKELYDYFDGRVSLDEAIEQLKQNSRRYAKRQLTWFRNQMPVKWFDMTDAGQFAAKVQEISRYVAGKLQLEANI", "soluble on expression in E. coli": "not soluble"}, {"sequence": "MAELISFVVPTQSDKVLLVWDLSTGPPAEALSHSLFTVFSQFGLLYSVRVFPNAAVARPGFYAIIKFYSSRDAQRAQKACDGKPLFQTSPVKVRLGTRHKALQHQAFALNSSRCQELANYYFGFSGWSKRIIKLQELSGLEDAALAVPMQKGSPQFLCAVEVVLPPYGCRSPGVGISEEPLRQLEEGQSSFLMKRKTAQKLAFQAAVSDAFQKLTIVVLESGRIAVEYRPTAEDLDARSEEELQNLIQVSCSSWSQSSQREEECLSDFSLEEEDLKLCDPH", "soluble on expression in E. coli": "soluble"}, {"sequence": "MAEPVQEELSVLAAIFCRPHEWEVLSRSETDGTVFRIHTKAEGFMDADIPLELVFHLPVNYPSCLPGISINSEQLTRAQCVTVKEKLLEQAESLLSEPMVHELVLWIQQNLRHILSQPETG", "soluble on expression in E. coli": "soluble"}, {"sequence": "MAESDWDTVTVLRKKGPTAAQAKSKQAILAAQRRGEDVETSKKWAAGQNKQHSITKNTAKLDRETEELHHDRVTLEVGKVIQRGRQSKGLTQKDLATKINEKPQVIADYESGRAIPNNQVLGKIERAIGLKLRGKDIGKPIEKGPKAK", "soluble on expression in E. coli": "soluble"}, {"sequence": "MAESPSQSDAQLVAHQSPGQQADSDLTSLVFDYKSVLCVYFFSHLLTVLKTNAIAEMSQQVQMGMENMLKMVYEIDQNSVGIKEEIEKSKDFAMEKKRILEEEKDQFQKAAYTILDMLSNSRG", "soluble on expression in E. coli": "soluble"}, {"sequence": "MAESSVTFTISTDGGGKINVIYDGSHKTNATDSSVNSESVTPCESLDTTKESEMLKAGLRRRAPSISTESSVTFSSISDFEDLNLRCSTPLVCDDDTNSNSDASFASCVSEVSEMSIKTTSSQETVTSASGLKESKPMEKMEEKREVRMKSYEQVNKERYGGWTEVVNWRAAKKPQSVAPSQSSTKKTLSNNGTTTDHGITSASRRTPNSTHVASKPQLNTRATSVQGSAPSSGSKSRIPSLANRQVYNNSPQLFHPFPPSRCNSSNGSYASTVTASPSVASYSPNPSQPPPPVAVAKLNMKMTITTDSNGKMSVHFSNSNSSESWSINGLLGNSDKINVSKMF", "soluble on expression in E. coli": "not soluble"}, {"sequence": "MAETEILKCIGCGAPLQSEDLDAPGYVPESSLYKEDVICKRCFRLKNYNEVQDVGLDSEDFLNLLNGLADKKGIVVNVVDVFDFEGSFINAIKRIVGNKQIILVGNKLDLLPKQINKRRVKEWLKKTARKYGLDAEDVILISAEKNEGIEDLLNAINTLRNNDDVYIVGTTNVGKSTLINKLIERSVGEKNVVTTSRFPGTTLDMIDIPLDDTSFMYDTPGVIQEHQMTHYVTEKELKTIMPKKEVKQRVYQLNEGQTLFFGGLARIDYISGGKRPLVCYFSNDLNIHRTKTENANELWRNQLGDVLSPPNNPDHFDLQNVKAVRLETGKEKRDVMISGLGFITIDEGAKIIVRVPKNVDVVLRNSIMLEHHHHHH", "soluble on expression in E. coli": "not soluble"}, {"sequence": "MAETVGMILCGGFGKRLRPLTEKIPKPLIEIKEGYTILDKQLFDLKNAGINTVYLLTGFLGERIEERYGDNYKGLRIEYVREEKPLGTLNAIRLGMEAIDGEKQCIIRNGDVVADLNIKKMIHLGEMSDYPLTMFITRMQSPYGIVETSGDKIINFREKPLLDYYINAGVYFSKGNLDFGDFESGDIEKTLFPLMAKENKLGYYREDGLFWMAIDTSKELEEIRKEYRNREDKPWGYEKILINTEKYLTKELFIREGYRTSFHYHEEKDETMYIISGSGYIEFDNRKEYFSKNDTIRIEPGERHSIVAMENTVLHEVSTPHLNDTVRVQDYYTRLEHHHHHH", "soluble on expression in E. coli": "soluble"}, {"sequence": "MAEVKKSNAPEFKGAETLYLIDIPQPDGKTTKTVRFFNQTSGSRSIEAGEIELKTKDKSGSDYGDVTQSASIEGICTEGDEGLDYVEEAILNKVLVRIHEVNLRSATASEFKVKSGTYMLNSLELSHENEEYSKYSIGLKLNGKISKGTLNKVPEGAPSGDVATPGTE", "soluble on expression in E. coli": "not soluble"}, {"sequence": "MAEVRARVDFKVGAKSNIDAEILSFRGLKTDKEHVAVIFKQADQTQDTPLVRMHSECLTGDVFHSSRCDCGEQLEETIQRMGESGGVILYLRQEGRGIGLYNKIDAYRLQSQGMNTYEANNHLGFDDDLRDFTEAAQMLEALGIKKIRLVTNNPKKIRELAEYGIEIVEVVNTSAHIKDGNENYLRAKVSHGKHNLKVLEHHHHHH", "soluble on expression in E. coli": "soluble"}]}]}
